Assay results as given in article PMC3257248, “Wnt4 Participates in the Formation of Vertebrate Neuromuscular Junction” (PLoS ONE, 2012).

Biological target: T1, MuSK (muscle specific kinase), full length (rat, UniProt Q62838 22-868)
T1 sequence (looked up): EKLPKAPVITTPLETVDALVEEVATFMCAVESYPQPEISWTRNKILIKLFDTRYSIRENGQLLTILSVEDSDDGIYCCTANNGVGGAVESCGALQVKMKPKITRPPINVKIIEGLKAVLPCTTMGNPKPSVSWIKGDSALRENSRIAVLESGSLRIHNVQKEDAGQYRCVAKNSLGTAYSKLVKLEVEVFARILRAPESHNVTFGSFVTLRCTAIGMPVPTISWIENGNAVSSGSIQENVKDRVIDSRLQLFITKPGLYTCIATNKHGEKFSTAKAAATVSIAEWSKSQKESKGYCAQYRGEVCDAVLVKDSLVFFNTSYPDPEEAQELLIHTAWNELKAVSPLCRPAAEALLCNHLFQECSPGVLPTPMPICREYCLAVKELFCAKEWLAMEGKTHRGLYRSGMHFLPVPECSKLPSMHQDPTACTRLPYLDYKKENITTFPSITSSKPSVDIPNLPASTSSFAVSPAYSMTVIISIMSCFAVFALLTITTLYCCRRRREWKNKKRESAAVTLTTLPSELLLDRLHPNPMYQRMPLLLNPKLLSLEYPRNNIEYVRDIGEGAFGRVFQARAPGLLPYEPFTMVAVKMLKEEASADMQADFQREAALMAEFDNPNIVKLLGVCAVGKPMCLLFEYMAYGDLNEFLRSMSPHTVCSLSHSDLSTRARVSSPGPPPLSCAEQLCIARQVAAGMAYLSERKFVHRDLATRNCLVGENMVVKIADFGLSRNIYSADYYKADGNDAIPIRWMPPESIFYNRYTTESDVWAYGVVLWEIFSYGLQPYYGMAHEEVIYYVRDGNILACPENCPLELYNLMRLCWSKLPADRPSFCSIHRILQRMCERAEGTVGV
Assay: cell-based or functional assay

MuSK tyrosine phosphorylation (pTyr blot of HA immunoprecipitates, +Wnt4/-Wnt4 ratio) in HEK 293T cells cotransfected with HA-MuSK with or without Wnt4-HA: 2 fold
B1: HA-tagged Wnt4 (ligand, UniProt P22724 23-351, looked up)
chain: SNWLYLAKLSSVGSISEEETCEKLKGLIQRQVQMCKRNLEVMDSVRRGAQLAIEECQYQFRNRRWNCSTLDSLPVFGKVVTQGTREAAFVYAISSAGVAFAVTRACSSGELEKCGCDRTVHGVSPQGFQWSGCSDNIAYGVAFSQSFVDVRERSKGASSSRALMNLHNNEAGRKAILTHMRVECKCHGVSGSCEVKTCWRAVPPFRQVGHALKEKFDGATEVEPRRVGSSRALVPRNAQFKPHTDEDLVYLEPSPDFCEQDIRSGVLGTRGRTCNKTSKAIDGCELLCCGRGFHTAQVELAERCGCRFHWCCFVKCRQCQRLVEMHTCR
